Source: patent US20110014241A1

Target: H-2K^b class I-determinants expressed on LM fibroblasts transduced with pBR327H-2K^b (mouse) (UniProt P01901)
Assay: flow cytometry staining of LM cells transduced with pBR327H-2K^b, control staining

Sequence of UniProt P01901 (P01901 22-369): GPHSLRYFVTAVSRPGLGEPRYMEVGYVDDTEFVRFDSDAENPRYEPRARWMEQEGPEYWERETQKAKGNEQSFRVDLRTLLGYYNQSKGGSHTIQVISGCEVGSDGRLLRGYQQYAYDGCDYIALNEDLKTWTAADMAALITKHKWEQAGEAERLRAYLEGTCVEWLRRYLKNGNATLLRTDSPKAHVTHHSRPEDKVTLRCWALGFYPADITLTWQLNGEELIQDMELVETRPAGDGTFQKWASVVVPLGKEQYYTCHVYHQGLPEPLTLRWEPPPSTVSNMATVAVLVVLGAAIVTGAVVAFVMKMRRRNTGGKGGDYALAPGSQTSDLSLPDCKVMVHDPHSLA

- mean fluorescence index (MFI): 0.3
Substance: isotope control sera (antibody)
